This experiment deals with T1, His6-Arc (Activity-regulated cytoskeleton-associated protein, full length) (mouse), Q9WV31.
T1 chain: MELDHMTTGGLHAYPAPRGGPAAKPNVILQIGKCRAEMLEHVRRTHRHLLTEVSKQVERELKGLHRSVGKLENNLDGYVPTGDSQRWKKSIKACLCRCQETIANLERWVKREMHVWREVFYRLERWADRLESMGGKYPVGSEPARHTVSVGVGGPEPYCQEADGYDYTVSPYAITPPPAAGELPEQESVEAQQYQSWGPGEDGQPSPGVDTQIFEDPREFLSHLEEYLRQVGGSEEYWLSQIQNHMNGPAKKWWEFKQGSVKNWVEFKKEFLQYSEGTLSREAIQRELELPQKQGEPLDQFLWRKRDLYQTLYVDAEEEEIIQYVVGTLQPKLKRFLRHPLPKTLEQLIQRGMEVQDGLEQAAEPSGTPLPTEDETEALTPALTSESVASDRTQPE
In words: SEC + other: sucrose density gradient centrifugation. The settings on record: remark: other sources report otherwise.

B1: His6-Arc (Activity-regulated cytoskeleton-associated protein, full length), Q9WV31 1-396 (natural protein)
chain: MELDHMTTGGLHAYPAPRGGPAAKPNVILQIGKCRAEMLEHVRRTHRHLLTEVSKQVERELKGLHRSVGKLENNLDGYVPTGDSQRWKKSIKACLCRCQETIANLERWVKREMHVWREVFYRLERWADRLESMGGKYPVGSEPARHTVSVGVGGPEPYCQEADGYDYTVSPYAITPPPAAGELPEQESVEAQQYQSWGPGEDGQPSPGVDTQIFEDPREFLSHLEEYLRQVGGSEEYWLSQIQNHMNGPAKKWWEFKQGSVKNWVEFKKEFLQYSEGTLSREAIQRELELPQKQGEPLDQFLWRKRDLYQTLYVDAEEEEIIQYVVGTLQPKLKRFLRHPLPKTLEQLIQRGMEVQDGLEQAAEPSGTPLPTEDETEALTPALTSESVASDRTQPE
In the case of B1, the stoichiometry N (as a rule, a count of units in the complex or per binding partner) turned out to be 2.

Source of the values: publication PMC4398645.
